Source: PMC7791793

Assays:
[1] = biological target: human ether-à-go-go-related gene potassium channel 1 (hERG), stable HEK 293 cell line (human) (UniProt Q12809)
[2] = biological target: human ether-à-go-go-related gene potassium channel 1 (hERG), wild type, in Xenopus laevis oocytes (human) (UniProt Q12809)
[3] = biological target: human ether-à-go-go-related gene potassium channel 1 (hERG), wild type, in Xenopus laevis oocytes (human) (UniProt Q12809); assay: two-electrode voltage clamp (fraction of uninhibited tail currents)

For “recombinant APETx1 (wild type) (peptide)”, the toxin-induced shift of the half-maximal activation voltage (ΔV1/2) of hERG, whole-cell patch clamp, APETx1 0.1-10 μM; value at 10 μM [1] was 23.9 mV, the toxin-induced shift of the half-maximal activation voltage (ΔV1/2) of hERG, TEVC recordings in oocytes, APETx1 0.1-10 μM; value at 10 μM [2] was 21.9 mV and the apparent Kd, model (A): four equivalent and independent binding sites per channel, fractional toxin-sensitive current [3] was 1.2 µM. For the same substance, the apparent Kd, model (B): four equivalent and independent binding sites per channel, fully toxin-sensitive current [3] was 1.7 µM and the apparent Kd, model (C): one binding site per channel, fractional toxin-sensitive current [3] was 0.23 µM.
